Assay results published in article PMC6060420, “Persulfide Dioxygenase From Acidithiobacillus caldus: Variable Roles of Cysteine Residues and Hydrogen Bond Networks of the Active Site” (Frontiers in Microbiology, 2018).

Key:
AcPDO = target: T1, AcPDO (Acidithiobacillus caldus, UniProt A0A2P9DTT9); experiment: MALDI-TOF MS of tryptic peptides; format: binding; conditions: covalent; cysteine-GSH adducts at C87, C224, C137 after […] min with […] GSSH, pH […]
T1 construct: gene pdo

[1] = target: persulfide dioxygenase from Acidithiobacillus caldus C-SH12 (AcPDO) (Acidithiobacillus caldus C-SH12); experiment: native gel or EMSA; gel of urea-treated AcPDO (Supplementary Figure S6B), urea up to 8 M; 54-kDa dimer band
[2] = target: persulfide dioxygenase from Acidithiobacillus caldus C-SH12 (AcPDO) (Acidithiobacillus caldus C-SH12); experiment: SDS-PAGE with Western blot; 10% acrylamide Tris-tricine SDS gel of purified AcPDO, detection with HRP-conjugated anti-Strep-tag antibody
[3] = target: persulfide dioxygenase from Acidithiobacillus caldus C-SH12 (AcPDO) (Acidithiobacillus caldus C-SH12); experiment: SEC; gel permeation chromatography, Superose 6 10/300 on an Äkta system, freshly prepared AcPDO (0.5 mg protein); standards cytochrome c, conalbumin, aldolase, catalase
[4] = target: persulfide dioxygenase from Acidithiobacillus caldus C-SH12 (AcPDO) (Acidithiobacillus caldus C-SH12); experiment: SEC; gel permeation chromatography, Superose 6 HR 10/30, previously frozen AcPDO, 2 M guanidinium chloride in 150 mM Tris/HCl pH 8, after 1 h at 25°C, 0.5 ml/min; tetramer to dimers

T1 sequence (A0A2P9DTT9 1-235 limits assumed): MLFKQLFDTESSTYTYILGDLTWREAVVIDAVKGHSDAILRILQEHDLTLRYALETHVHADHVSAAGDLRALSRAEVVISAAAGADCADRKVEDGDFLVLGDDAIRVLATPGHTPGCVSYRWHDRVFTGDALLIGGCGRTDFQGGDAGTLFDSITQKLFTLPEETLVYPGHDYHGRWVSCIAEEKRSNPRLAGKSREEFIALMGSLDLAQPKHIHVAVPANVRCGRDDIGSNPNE

Compound: N[C@@H](CCC(=O)N[C@@H](CSS)C(=O)NCC(=O)O)C(=O)O [GSSH]
- MALDI-TOF MS of tryptic peptides (AcPDO): cysteine-GSH adducts were identified after the enzyme was incubated with GSSH

Compound: persulfide dioxygenase from Acidithiobacillus caldus C-SH12 (AcPDO) (enzyme)
- stoichiometry N [1]: 2
- stoichiometry N [2]: 2
- stoichiometry N [3]: 3.7 subunits
- stoichiometry N [4]: 2
